# From publication PMC8182377, “Tying up the Loose Ends: A Mathematically Knotted Protein” (Frontiers in Chemistry, 2021)
# Columns and labels:
# [1] = molecular target: T1, cYibK (cYibK_lo, backbone-cyclized PaYibK) (Pseudomonas aeruginosa, UniProt Q9HU57); assay: isothermal titration calorimetry; assay type: binding
# T1 construct: gene trmL; recombinant in E. coli ER2566 from pITRSF3D (SUMO fusion cut, LPETG-H6), N and C termini joined by S. aureus sortase A through a nine-residue linker, His-tag removed by ligation; backbone-cyclized, homodimer
# lYibK (linear PaYibK_lo) = molecular target: T2, lYibK (linear PaYibK_lo) (Pseudomonas aeruginosa, UniProt Q9HU57); assay: isothermal titration calorimetry; assay type: binding
# T2 construct: gene trmL; recombinant in E. coli ER2566 from pBHRSF260, N-terminal His-SUMO fusion cut by Ulp1; homodimer
# T2 sequence (Q9HU57 1-153): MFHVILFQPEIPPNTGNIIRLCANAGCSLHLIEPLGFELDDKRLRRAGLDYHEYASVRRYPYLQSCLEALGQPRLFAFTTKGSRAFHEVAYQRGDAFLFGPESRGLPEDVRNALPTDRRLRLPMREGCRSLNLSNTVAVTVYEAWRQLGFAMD
# [2] = molecular target: backbone-cyclized YibK from Pseudomonas aeruginosa with a nine-residue linker (sortase A ligation of PaYibK_lo) (Pseudomonas aeruginosa); assay: SEC-SAXS; native conditions: buffer A (50 mM Tris-HCl pH 7.4, 0.5 mM EDTA, 5 mM DTT) without urea, 2% glycerol; protein at 10 mg/ml; online size-exclusion column (Bio SEC-3)
# [3] = molecular target: linear form of YibK from Pseudomonas aeruginosa with the identical sequence as PaYibK_lo / cYibK (Pseudomonas aeruginosa); assay: as above
# [4] = molecular target: wild-type YibK from Pseudomonas aeruginosa in its linear form (Pseudomonas aeruginosa); assay: crystal structure; PaYibK: 0.15 M ammonium sulfate, 0.9 M lithium sulfate, 0.1 M sodium citrate pH 5.6, 2.0 Å; cYibK: 0.3 M ammonium sulfate, 0.1 M MES pH 6.0, 25% PEG MME 5,000, 2.2 Å
compound,measurement,setting,value
Nc1ncnc2c1ncn2[C@@H]1O[C@H](CSCC[C@H](N)C(=O)O)[C@@H](O)[C@H]1O [S-adenosyl-L-homocysteine],Kd,[1],8.93 ± 0.03 µM
same,Kd,lYibK (linear PaYibK_lo),8.8 ± 0.01 µM
backbone-cyclized YibK from Pseudomonas aeruginosa with a nine-residue linker (sortase A ligation of PaYibK_lo) (enzyme),stoichiometry N,[2],2
linear form of YibK from Pseudomonas aeruginosa with the identical sequence as PaYibK_lo / cYibK (enzyme),stoichiometry N,[3],2
wild-type YibK from Pseudomonas aeruginosa in its linear form (enzyme),stoichiometry N,[4],2
